US20230049752A1 (University of California, published 2023)
Numbering of substitutions follows the chain as printed.

T1: mouse Claudin-6 (CLDN6) (mouse, UniProt Q9Z262 1-219)
T1 construct: whole, on cells; GFP fusion on engineered HEK293T cells; also called Mouse CLDN6; murine CLDN6
T1 sequence (looked up): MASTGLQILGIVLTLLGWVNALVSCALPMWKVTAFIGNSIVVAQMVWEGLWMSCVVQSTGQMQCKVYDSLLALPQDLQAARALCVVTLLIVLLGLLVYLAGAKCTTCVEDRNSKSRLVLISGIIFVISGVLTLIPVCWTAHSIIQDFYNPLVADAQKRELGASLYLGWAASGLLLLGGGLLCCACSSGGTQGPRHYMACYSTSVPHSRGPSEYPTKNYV

B1: AB9-3 (antibody, V domains shown)
VH: QVQLVQSGAEVKKPGASVKMSCKASGYRFTDYNMHWVRQAPGQGLEWIGYINPNNGGTNYAQKFQGRATLTVDTSTSTAYMELSSLRSEDTAVYYCARDYLYFFDCWGQGTLLTVSS
VL: DIQMTQSPSSLSASVGDRVTITCLASQTIGTWLAWYQQKPGKAPKLLIYAAASLADGVPSRFSGSGSGTDFTFTISSLQPEDFVTYYCQQLYSIPRTFGQGTKLEIK
B2: AB18-4 (antibody, V domains shown)
VH: QVQLVQSGAEVKKPGASVKVSCKASGYSFTGYNMNWVRQAPGQGLEWMGNIDPYYGGSTYAQKFQGRVTMTVDTSTSTVYMELSSLRSEDTAVYYCARERSGYVFSAMDYWGQGTLVTVSS
VL: DIVMTQSPDSLAVSLGERVTMNCKSSQSVLFSSNQKNYLAWYQQKPGQPPKLLIYWASTRESGVPDRFSGSGSGTDFTLTISSVQAEDVAVYYCHQYLSSRTFGQGTKLEIK
B3: AB18-6 (antibody, V domains shown)
VH: B2 VH with V20I, M48I, V68A, M70L, V79A
VL: B2 VL
B4: AB1-7 (antibody, V domains shown)
VH: QVQLVQSGAEVKKPGASVKMSCKASGYTFTTYTMHWVRQAPGQGLEWIGFINPSSGYTDYAQKFQGRVTLTADTSTSTVYMELSSLRSEDTAVYYCANGDYYVAYWGQGTLVTVSS
VL: DIQLTQSPSSLSASVGDRVTMTCTASSSVSSTYFHWYQQKPGKAPKLLIYSTSNLASGVPSRFSGSGSGTDYTLTISSMQPEDAATYYCHQYHRSPLTFGQGTKLEIK
notes: humanized
B5: AB1-11 (antibody, V domains shown)
VH: B4 VH with T74K
VL: B4 VL with L48W
notes: humanized; also called humanized AB1-11; HU-11
B6: AB1-4 (antibody, V domains shown)
VH: B4 VH with M20V, I48M, L70M
VL: B4 VL
notes: humanized
B7: AB1-3 (antibody, V domains shown)
VH: B4 VH with M20V, I48M, L70M
VL: B4 VL with L4M, M21I, M79L, A84F
notes: humanized
B8: AB S3 (antibody, V domains shown)
VH: EVQLLESGGGLVQPGGSMRLSCAASGFTFSNYWMNWVRQAPGKGLEWIAQIRLKSDNYVTHYTDSVKGRFTISRDDSKRTVYLQMNSLRAEDTGIYYCSDGPPSGSWGQGTLLTVSS
VL: DIQMTQSPSSLSASVGDRVTITCRISENIYSYLAWYQQKPGKAPKLLVYNAKILVEGVPSRFSGSGSGTDFTLTISSLQPEDFGTYYCQHHYTVPWTFGQGTKLEIK
B9: AB18-chim (antibody, V domains shown)
VH: QVQLKQSGPELEKPGASVKISCKASGYSFTGYNMNWVKQSNGKSLEWIGNIDPYYGGSTYNQKFTGKATLTVDKSSSTAYMQLKSLTSEDSAVYYCARERSGYVFSAMDYWGQGTSVTVSS
VL: NIMMTQSPSSLAVSAGEKVTMSCKSSQSVLFSSNQKNYLAWYQQKPGQSPRLLIYWASTRESGVPDRFTGSGSGTDFTLTISNVQAEDLAVYYCHQYLSSRTFGAGTKLELK
B10: AB9-chim (antibody, V domains shown)
VH: EVQLQQSGPELVKPGASVKMSCKASGYRFTDYNMHWVKQSHGKSLEWIGYINPNNGGTNYNQNFKGKATLTVNKSSSTAYMELRSLTSEDSAAYYCARDYLYFFDCWGQGTTLTVSS
VL: DIQMTQSPASQSASLGESVTITCLASQTIGTWLAWYQQKPGKSPQLLIYAAASLADGVPSRFSGSGSGTRFSFKISSLQAEDFVSYYCQQLYSIPRTFGGGTKLEIK
B11: AB4-6 (antibody, V domains shown)
VH: QVQLVQSGAEVKKPGASVKMSCKASGYTFTSYTMHWIRQAPGQGLEWIGYINPSSTYTHYAQKFQGRATLTADKSTSTAYMELSSLRSEDTAVYYCSRGELGGFAYWGQGTLVTVSS
VL: DVVMTQSPLSLPVTLGQPASISCRSSQSLVHSDGNTYLNWYQQRPGQSPRLLIYKVSNRFSGVPDRFSGSGSGTDFTLKISRVEAEDVGVYYCSQSTHVPYTFGQGTKLEIK
notes: humanized
B12: AB4-12 (antibody, V domains shown)
VH: B11 VH with L45Q, A61I, Q62K, Q65K, G66D
VL: B11 VL
notes: humanized
B13: AB4-10 (antibody, V domains shown)
VH: B11 VH with L45Q, A61I, Q62K, Q65K, G66D, K74T
VL: B11 VL
notes: humanized
B14: AB4-9 (antibody, V domains shown)
VH: B11 VH with A61I, Q62K, Q65K, G66D, K74T
VL: B11 VL
notes: humanized
B15: AB4-8 (antibody, V domains shown)
VH: QVQLVQSGAEVKKPGASVKVSCKASGYTFTSYTMHWVRQAPGQGLEWMGYINPSSTYTHYIKKFKDRVTMTADTSTSTVYMELSSLRSEDTAVYYCSRGELGGFAYWGQGTLVTVSS
VL: B11 VL
notes: humanized
B16: AB4-7 (antibody, V domains shown)
VH: B11 VH with L45Q
VL: B11 VL
notes: humanized
B17: AB4-11 (antibody, V domains shown)
VH: B11 VH with A61I, Q62K, Q65K, G66D
VL: B11 VL
notes: humanized

Experiments:
[1] = molecular target: human Claudin-6 (CLDN6) (human) (UniProt P56747); assay: FACS, 0.3 ug Ab, ARK2 cells (2nd Ab only 1351.21)
[2] = molecular target: human Claudin-6 (CLDN6) (human) (UniProt P56747); assay: FACS, 0.3 ug Ab, 293T clone expressing human CLDN6 (2nd Ab only 768.07)
[3] = molecular target: human Claudin-6 (CLDN6) (human) (UniProt P56747); assay: FACS, 1.5 ug Ab, ARK2 cells (2nd Ab only 1351.21)
[4] = molecular target: human Claudin-6 (CLDN6) (human) (UniProt P56747); assay: FACS, 1.5 ug Ab, OVCA429 cells (2nd Ab only 885.77)
[5] = molecular target: human Claudin-6 (CLDN6) (human) (UniProt P56747); assay: FACS, 1.5 ug Ab, 293T clone expressing human CLDN6 (2nd Ab only 768.07)
[6] = molecular target: T1, mouse Claudin-6 (CLDN6); assay: FACS, 293T clone expressing mouse CLDN6, dose not stated (2nd Ab only 1061.72)
Protocol: Two doses (1.5 μg or 0.3 μg) of the humanized antibodies were tested for binding to either human CLDN6 or murine CLDN6 which proteins were expressed by engineered 293T clones.

[7] = molecular target: human Claudin-6 (CLDN6) (human) (UniProt P56747); assay: FACS, limiting dilution, ARK2 cells
[8] = molecular target: human Claudin-6 (CLDN6) (human) (UniProt P56747); assay: FACS, limiting dilution, UMUC4 cells
[9] = molecular target: human Claudin-6 (CLDN6) (human) (UniProt P56747); assay: FACS, limiting dilution, OV90 cells

Row | Binder | FACS fluorescence [1] | FACS fluorescence [2] | FACS fluorescence [3] | FACS fluorescence [4] | FACS fluorescence [5] | FACS fluorescence [6] | also measured
1 | B1 | 1140 | 9500 | 1470 | 1260 | 24600 |  | 
2 | B2 | 1130 | 32400 | 1380 | 3220 | 54400 |  | 
3 | B3 | 1390 | 26900 | 1940 | 6750 | 58500 |  | 
4 | B4 | 4440 | 79200 | 11200 | 44700 | 207000 | 99700 | 
5 | B5 | 53900 | 64900 | 97700 |  | 113000 | 101000 | FACS signal at 0.32 nM [7]: 377; FACS signal at 1.6 nM [7]: 639; FACS signal at 8 nM [7]: 2290; FACS signal at 40 nM [7]: 3460; FACS signal at 200 nM [7]: 16400; FACS signal at 1000 nM [7]: 50500; FACS signal at 0.32 nM [8]: 618; FACS signal at 1.6 nM [8]: 839; FACS signal at 8 nM [8]: 1610; FACS signal at 40 nM [8]: 4160; FACS signal at 200 nM [8]: 25700; FACS signal at 0.32 nM [9]: 452; FACS signal at 1.6 nM [9]: 753; FACS signal at 8 nM [9]: 2150; FACS signal at 40 nM [9]: 7820; FACS signal at 200 nM [9]: 32500; FACS signal at 1000 nM [9]: 72100
6 | B6 | 3640 | 102000 | 10000 | 34600 | 197000 | 75900 | 
7 | B7 | 2830 | 142000 | 10800 | 27500 | 142000 | 89300 | 
8 | B8 |  |  |  |  |  |  | FACS signal at 0.32 nM [7]: 372; FACS signal at 1.6 nM [7]: 933; FACS signal at 8 nM [7]: 4830; FACS signal at 40 nM [7]: 24600; FACS signal at 200 nM [7]: 83600; FACS signal at 0.32 nM [8]: 533; FACS signal at 1.6 nM [8]: 647; FACS signal at 8 nM [8]: 1980; FACS signal at 40 nM [8]: 7780; FACS signal at 200 nM [8]: 20800; FACS signal at 1000 nM [8]: 45300; FACS signal at 0.32 nM [9]: 482; FACS signal at 1.6 nM [9]: 1040; FACS signal at 8 nM [9]: 4470; FACS signal at 40 nM [9]: 19500; FACS signal at 200 nM [9]: 63100
9 | B9 | 3440 | 73800 | 9150 | 25500 | 135000 |  | 
10 | B10 | 3510 | 46700 | 4490 | 3570 | 72000 |  | 
11 | B11 | 3300 | 10800 | 9840 |  | 29200 | 14200 | 
12 | B12 | 9690 | 71100 | 24200 |  | 86200 | 1130 | 
13 | B13 | 7210 | 50800 | 20200 |  | 77200 | 2650 | 
14 | B14 | 3060 | 37200 | 7790 |  | 56900 | 1780 | 
15 | B15 | 3120 | 49300 | 7310 |  | 77600 | 4700 | 
16 | B16 | 2770 | 19200 | 7560 |  | 33300 | 6640 | 
17 | B17 | 6390 | 37800 | 9170 |  | 61200 | 1230 | 
